Measurements: patent US20240018260A1 (AMUNIX PHARMACEUTICALS, published 2024)

What was measured:
[1] = target: T1, recombinant human EpCAM (rhEpCAM) (human, UniProt P16422 24-265); test: sandwich ELISA: rhEpCAM coated on plate, detection with biotin-conjugated protein L
T1 construct: Bought recombinant protein coated on the ELISA plate
T1 sequence (looked up): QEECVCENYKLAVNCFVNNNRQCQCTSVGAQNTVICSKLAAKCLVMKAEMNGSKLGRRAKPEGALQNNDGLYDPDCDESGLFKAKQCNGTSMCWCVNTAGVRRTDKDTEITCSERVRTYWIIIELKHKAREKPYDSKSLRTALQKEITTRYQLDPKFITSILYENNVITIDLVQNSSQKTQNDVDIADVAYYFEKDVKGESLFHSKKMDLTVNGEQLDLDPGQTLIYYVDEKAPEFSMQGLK
Method: (§1) The binding specificity of an anti-EpCAM×anti-CD3 ProTIA (e.g. AC1476) was evaluated in conjunction with the control ProTIA compositions anti-CEA×anti-CD3 ProTIA (e.g. AC1432) and anti-HER2×anti-CD3 ProTIA (e.g. AC1408), in a target antigen/biotin-conjugated protein-L sandwich ELISA. Both the anti-CEA×anti-CD3 ProTIA (AC1432) and the anti-HER2×anti-CD3 ProTIA (AC1408) bear the same anti-CD3 scFv component as the anti-EpCAM×anti-CD3 ProTIA (AC1476) albeit with different targeting component. In the ELISA binding assay, recombinant human EpCAM (rhEpCAM) (R&D Systems cat #960-EP-50), recombinant human CEA (Abcam cat #ab742) and recombinant human HER2 (AcroBiosystems cat #HE2-H525) were coated on a 96-well, flat-bottomed plate at a concentration of 0.1 microg/100 microL. After overnight incubation at 4° C., the assay plate was washed and blocked with 3% bovine serum albumin (BSA) for 1 h at room temperature. The plate was washed again followed by the introduction of a dose range (0.0007 to 0.5 nM, achieved with a 1:3 fold serial dilution scheme from a starting concentration of 0.5 nM) of protease-treated anti-EpCAM×anti-CD3 ProTIA (e.g. AC1476) to EpCAM-coated wells, CEA-coated wells and HER2-coated wells. […] After desired color intensity was reached, 0.2 N sulfuric acid was added to stop the reaction and absorbance (OD) was measured at 450 nm using a spectrophotometer. […]

[2] = target: T1, recombinant human EpCAM (rhEpCAM); test: sandwich ELISA: rhEpCAM coated on plate, detection with peroxidase-conjugated protein L
Method: The binding capability of anti-EpCAM×anti-CD3 ProTIA composition was verified with an EpCAM/peroxidase-conjugated protein-L sandwich ELISA. In the ELISA binding assay, recombinant human EpCAM (rhEpCAM) (Sino BiologicalR&D Systems cat #10694-H08H960-EP-50) was coated on a 96-well, flat-bottomed plate at a concentration of 0.1 microg/100 microL. After overnight incubation at 4° C., the assay plate was washed and blocked with 3% bovine serum albumin (BSA) for 1 h at room temperature. The plate was washed again followed by the introduction of a dose range of non-cleavable anti-EpCAM×anti-CD3 ProTIA (i.e., a ProTIA without the release segment cleavage sequence and AC1484, a ProTIA chimeric polypeptide assembly composition) and protease-treated and protease-untreated anti-EpCAM×anti-CD3 ProTIA (e.g. AC1476). The dose range utilized for non-cleavable and protease-treated and untreated ProTIA was 0.0006 to 5 nM, achieved with a 1:6 fold serial dilution scheme from a starting concentration of 5 nM. The plate was allowed to incubate with shaking for 1 h at room temperature to allow the non-cleavable, protease-cleaved and uncleaved ProTIA to bind to the rhEpCAM coated on the plate. Unbound components were removed with a wash step and a peroxidase-conjugated protein L (PierceThermoFisher Scientific cat #32420) was added. After an appropriate incubation period that allowed protein-L to bind to the kappa light of the scFvs, any unbound reagent was removed by a wash step followed by the addition of tetramethylbenzidine (TMB) substrate to each well. TMB is a chromogenic substrate of peroxidase. After desired color intensity was reached, 0.2 N sulfuric acid was added to stop the reaction and absorbance (OD) was measured at 450 nm using a spectrophotometer. The intensity of the color is proportional to the concentration of non-cleavable, protease-treated and untreated anti-EpCAM×anti-CD3 ProTIA captured by the rhEpCAM/protein-L sandwich ELISA. The intensity of the color produced (measured OD) was plotted against protein concentration; and the concentration of non-cleavable, protease-cleaved and uncleaved anti-EpCAM×anti-CD3 ProTIA that gave half-maximal response (EC₅₀) was derived with a 4-parameter logistic regression equation using GraphPad prism software.

[3] = target: T2, recombinant human CD3 (rhCD3εδ) (human, UniProt P07766 23-126; P04234 22-105); test: sandwich ELISA: rhCD3εδ coated on plate, detection with peroxidase-conjugated protein L
T2 chain: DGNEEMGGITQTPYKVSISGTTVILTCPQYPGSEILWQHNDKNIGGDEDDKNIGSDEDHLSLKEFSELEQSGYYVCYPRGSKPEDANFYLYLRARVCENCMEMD

[4] = target: T3, recombinant human HER2 (human, UniProt P04626 23-652); test: sandwich ELISA: antigen coated on plate, detection with biotin-conjugated protein L
T3 construct: Coated on the ELISA plate; also called HER2 antigen
Method: as §1

[5] = target: T4, recombinant human CEA (human, UniProt P06731 35-685, limits assumed); test: as above
T4 construct: Coated on the ELISA plate; also called CEA antigen
T4 sequence (looked up): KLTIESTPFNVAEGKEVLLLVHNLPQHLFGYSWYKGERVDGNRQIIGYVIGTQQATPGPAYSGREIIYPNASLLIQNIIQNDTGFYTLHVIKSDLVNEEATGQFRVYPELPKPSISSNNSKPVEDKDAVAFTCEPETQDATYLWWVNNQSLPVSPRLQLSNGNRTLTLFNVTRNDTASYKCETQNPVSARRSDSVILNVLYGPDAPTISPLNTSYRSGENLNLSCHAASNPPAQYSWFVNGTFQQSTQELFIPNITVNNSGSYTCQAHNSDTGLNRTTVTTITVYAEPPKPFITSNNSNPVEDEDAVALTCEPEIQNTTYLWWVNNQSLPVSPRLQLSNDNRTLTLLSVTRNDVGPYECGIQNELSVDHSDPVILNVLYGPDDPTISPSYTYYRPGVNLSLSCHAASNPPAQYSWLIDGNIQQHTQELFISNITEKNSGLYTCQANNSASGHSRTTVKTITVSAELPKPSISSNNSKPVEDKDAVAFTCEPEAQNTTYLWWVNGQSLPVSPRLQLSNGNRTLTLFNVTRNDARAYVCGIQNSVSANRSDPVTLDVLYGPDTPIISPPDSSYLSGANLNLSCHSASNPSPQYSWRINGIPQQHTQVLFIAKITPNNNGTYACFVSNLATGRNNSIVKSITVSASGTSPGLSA
Method: as §1

[6] = target: T5, human EpCAM on EpCAM positive human carcinoma cells (SW480, SK-OV-3) (human, UniProt P16422 24-314); test: cell-based or functional assay
T5 sequence (looked up): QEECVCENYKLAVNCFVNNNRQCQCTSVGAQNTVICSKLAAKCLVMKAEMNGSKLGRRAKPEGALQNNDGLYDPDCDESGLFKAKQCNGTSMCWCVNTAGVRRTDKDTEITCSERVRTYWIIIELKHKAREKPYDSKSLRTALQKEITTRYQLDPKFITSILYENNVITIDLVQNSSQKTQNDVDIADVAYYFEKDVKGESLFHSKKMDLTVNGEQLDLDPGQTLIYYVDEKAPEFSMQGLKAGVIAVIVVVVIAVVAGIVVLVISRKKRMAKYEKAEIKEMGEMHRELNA

[7] = target: human CD3 on purified human CD3 positive T cells (human, UniProt P07766 23-207); test: cell-based or functional assay

EC50 [1]: 0.11 nM
EC50 [2]: 0.12 nM
EC50 [3]: 0.31 nM
B1: Protease-treated (MMP-9 cleaved) AC1476 anti-EpCAM×anti-CD3 ProTIA, released aEpCAM-aCD3 first portion (bispecific antibody)
chain: DIQMTQSPSSLSASVGDRVTITCRSTKSLLHSNGITYLYWYQQKPGKAPKLLIYQMSNLASGVPSRFSSSGSGTDFTLTISSLQPEDFATYYCAQNLEIPRTFGQGTKVEIKGATPPETGAETESPGETTGGSAESEPPGEGQVQLVQSGPGLVQPGGSVRISCAASGYTFTNYGMNWVKQAPGKGLEWMGWINTYTGESTYADSFKGRFTFSLDTSASAAYLQINSLRAEDTAVYYCARFAIKGDYWGQGTLLTVSSGGGGSDIQMTQSPSSLSASVGDRVTITCRASQDIRNYLNWYQQKPGKAPKLLIYYTSRLESGVPSRFSGSGSGTDYTLTISSLQPEDFATYYCQQGNTLPWTFGQGTKVEIKGATPPETGAETESPGETTGGSAESEPPGEGEVQLVESGGGLVQPGGSLRLSCAASGYSFTGYTMNWVRQAPGKGLEWVALINPYKGVSTYNQKFKDRFTISVDKSKNTAYLQMNSLRAEDTAVYYCARSGYYGDSDWYFDVWGQGTLVTVSSGTAEAASASGLSGRSDNHSPLG
notes: ESI-MS found 58,071 Da against a theoretical 58,067 Da; also called ProTIA-A; protease-treated anti-EpCAM×anti-CD3 ProTIA
binding result [4]: no binding (tested: 0.0007 to 0.5 nM (dose range tested))
binding result [5]: no binding (tested: 0.0007 to 0.5 nM (dose range tested))
EC50, LDH release cytotoxicity, PBMC:SK-OV-3 5:1 [6]: 0.003 nM
EC50, LDH release cytotoxicity, purified human CD3 positive T cells:OVCAR-3 5:1 [7]: 0.0003 nM
EC50, LDH release cytotoxicity, purified human CD3 positive T cells:SK-OV-3 5:1 [7]: 0.0024 nM
